# Source: paper doi:10.1101/2022.03.30.486377 (bioRxiv, 2022)
# B1: C77G12 mAb (antibody, V domains shown)
# VH: EVQLVESGGGVVQPGRSLRISCAVSGFTFGSYAMHWVRQAPGKGLEWVGVMSSDGHNEYYADSVKGRFTISRDNSRNKLYLEMNNLRVDDTAVFYCARGSDYVDDSPPLHYWGQGTLVTVSS
# VL: DIQLTQSPSSLSASIGDRVTITCRASQDIANKLAWFQQAPGKAPKSLIYAASRLQSGVPSQFSGSGSGTDFTLTIESLQAGDFATYFCQQYDSFPFTFGPGTKVDVK
# B2: VP12E7 mAb (antibody, V domains shown)
# VH: QVQLVQSGGGVVQPGESLRLSCSGSGFTFNNYIMHWVRQAPGQGLDYVSGIGSDGRNTNYGDSVKGRFTISRDNSKDTLYLQMTSLRAEDTAFYYCVKGLDVLRFLDLSTPSGERLDAFDIWGQGTMVTVSS
# VL: DIVMTQSPSFLSASVGDRVTITCRASQGISNYLAWYQQKPGKAPHLLIYAASTLQSGVPSRFSGSGSGTEFTLTISSLQPEDFATYYCQQLNSYPLFTFGPGTKVDIE
# B3: C13B8 mAb (antibody, V domains shown)
# VH: QVQLQESGPGLVQPSQTLTLTCTVSGDSISNEDYHWTWIRQHPGKGLEWMGYLQYSGNTNYNPSLKSRMTISVDTSKNQFSLRLNSVTAADTAVYFCATSIVLTGMSNKIQPFDYWGQGTLVTVSS
# VL: SYELTQPPSVSVSPGQMARITCSGEALPKKYAYWYQQKGGQFPVLVIYKDTERPSGIPERFSGSSSGTIVTLTISGVQPEDEADYYCLSADTSGTWVFGGGTKLTVL
# B4: VN01H1 mAb (antibody, V domains shown)
# VH: EVQLVESGGGLVLPGGSLRLSCSASGFTFSDFSMHWVRQSPGKGLEYVSAITSSGSSTYYPDSVKGRFTISRDNSKNTLYLQMGSLRVEDTAVYWCVKNSDVFRFPHLYFDVWGRGTLVTVSS
# VL: not shown
# B5: C13C9 mAb (antibody, V domains shown)
# VH: EVQLVQSGPEVKKPGTSARVSCKASGFTSKNTALQWVRQARGQPLEWMGWIDISNYITNYAQKFRGRLTITWDLSASMAYMELSSLRSEDTAVYYCAAVGKDDDVLTGGNKYFDHWGQGTLVTVSS
# VL: SYELTQPPSVSVSPGQTARITCSGDALPKKYAYWYQQKSGQAPVLVIHEDDKRPSGIPGRFSASSSGTTATLTISGAQVEDEADYYCYSTDTNDNHAFGSGTKLTVL
# Target: SARS-CoV-2 S2 in postfusion conformation (SARS-CoV-2 (D614G ectodomain; D614G …, UniProt P0DTC2, strain)
# Assay: ELISA
row,Binder,binding result
1,B1,binds
2,B2,binds
3,B3,binds
4,B4,binds
5,B5,binds

# Target: SARS-CoV-2 S PentaPro (F817), prefusion S trimer (SARS-CoV-2, Wuhan-Hu-1 sequence, UniProt P0DTC2, stabilised)
# Assay: ELISA
row,Binder,binding result
1,B1,binds
2,B2,binds
3,B3,binds
4,B4,binds
5,B5,binds

# Target: SARS-CoV-2 S2 PentaPro in prefusion conformation (SARS-CoV-2, Wuhan-Hu-1 sequence, UniProt P0DTC2, stabilised)
# Assay: ELISA
row,Binder,binding result
1,B1,binds
2,B2,binds
3,B3,binds
4,B4,binds
5,B5,binds
